Measurements from US20150098945A1 (Daiichi Sankyo, published 2015).
Residue numbers refer to the chain shown, from its start.

Molecular target: T1, recombinant human ROBO4 extracellular region polypeptide rROBO4-ECD (human, UniProt Q8WZ75 28-461)
T1 construct: Expressed from pEF6/V5-His-TOPO in FreeStyle 293-F cells; also called human ROBO4-ECD
T1 sequence: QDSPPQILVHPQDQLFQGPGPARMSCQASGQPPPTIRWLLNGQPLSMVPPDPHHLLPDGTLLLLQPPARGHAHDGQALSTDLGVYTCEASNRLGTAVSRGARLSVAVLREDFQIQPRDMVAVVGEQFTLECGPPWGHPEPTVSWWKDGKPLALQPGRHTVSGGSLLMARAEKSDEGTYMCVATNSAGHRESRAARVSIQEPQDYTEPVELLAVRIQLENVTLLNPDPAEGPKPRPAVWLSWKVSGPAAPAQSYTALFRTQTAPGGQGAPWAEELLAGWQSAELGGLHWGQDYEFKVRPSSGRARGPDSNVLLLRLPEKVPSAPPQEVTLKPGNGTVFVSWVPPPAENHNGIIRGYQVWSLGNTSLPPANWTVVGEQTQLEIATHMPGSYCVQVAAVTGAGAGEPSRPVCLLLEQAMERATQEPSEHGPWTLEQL
Test: SPR (Biacore 3000), antibody captured via anti-human IgG on CM5, rROBO4-ECD as analyte, 1:1 model
Protocol: The dissociation constant between each antibody and rROBO4-ECD was determined with the antibody immobilized as a ligand and the antigen as an analyte using Biacore 3000 (manufactured by GE Healthcare Bio-Sciences Corp.). Approximately 80 RU of the antibody was bound via an anti-human IgG antibody (manufactured by GE Healthcare Bio-Sciences Corp.) immobilized on a sensor chip CM5 (manufactured by GE Healthcare Bio-Sciences Corp.) by an amine coupling method. The running buffer used was PBS containing 0.05% Surfactant P20. Dilution series solutions (0.1-200 nM) of the antigen were added at a flow rate of 30 μL/min. for 300 seconds onto the antibody-bound chip. Subsequently, a dissociation phase was monitored for 300 seconds. 3 M MgCl₂ was added thereto as a regeneration solution at a flow rate of 10 μL/min. for 30 seconds. Data was analyzed using the 1:1 binding model of analysis software (BIAevaluation Software, version 4.1) to calculate an association rate constant kon, a dissociation rate constant koff, and a dissociation constant (KD; KD=koff/kon).

B1: humanized MAb1 antibody H-1040 (antibody, human IgG2, kappa, V domains shown)
VH: EVQLVESGGGLVQPGGSLRLSCAASGFTFSTYAMSWVRQAPGKGLEWVATISNGGTYTYYPDSVKGRFTISRDNAKNTLYLQMNSLRAEDTAVYYCARLIYYDYLDYWGQGTLVTVSS
VL: DIVMTQSPLSLPVTLGEPASISCRSSQSLENSNGNTYLNWYLQKPGQSPQLLIYRVSNRFSGVPDRFSGSGSGTDFTLKISRVEAEDVGVYYCLQVTHVPWTFGPGTKVDIKR
notes: Human IgG2 / kappa constant regions; also called hMAb1-H1-type heavy chain + hMAb1-L1-type light chain
Kd: 0.41 nM

B2: humanized MAb1 antibody H-2040 (antibody, human IgG2, kappa, V domains shown)
VH: B1 VH with G44R
VL: B1 VL
notes: Human IgG2 / kappa constant regions; also called hMAb1-H3-type heavy chain + hMAb1-L1-type light chain
Kd: 0.4 nM
